Here are results for 1 protein from paper doi:10.1101/2024.12.13.628329 (bioRxiv, 2024).

The series concerns the molecule itself. The experiment in a line: SEC.

B1: TNFR1^R347A death domain (domain or fragment, UniProt P19438 356-441, looked up)
chain: PATLYAVVENVPPLRWKEFVARLGLSDHEIDRLELQNGRCLREAQYSMLATWRRRTPRREATLELLGRVLRDMDLLGCLEDIEEAL
For B1, the “stoichiometry N” value was found to be 2.
